Source: publication PMC6282072

Experiments:
[1] = target: porcine cardiac ventricular myosin (βmys) (porcine) (UniProt P79293)
[2] = target: porcine cardiac ventricular myosin (βmys) (porcine) (UniProt P79293); remark: listed apart in the source

bovine ventricular actin (cardiac actin) (from UniProt Q3ZC07 1-377) (natural protein)
actin-activated myosin ATPase, Km (value of the running text) [1]: 3.6 µM
actin-activated myosin ATPase, Km (0.6 µM myosin titrated with 1–50 µM F-actin, 25 mM KCl, 21°C) [2]: 3.7 µM
